In paper PMC4811591, “Role of the Substrate Specificity-Defining Residues of Human SIRT5 in Modulating the Structural Stability and Inhibitory Features of the Enzyme” (PLoS ONE, 2016):
Changes are numbered by the printed parent chain. Names and notes keep the numbering of the source.

Columns and labels:
Type in all cases: biochemical, human
[1] = substrate: NC(=O)c1ccc[n+]([C@@H]2O[C@H](COP(=O)([O-])OP(=O)(O)OC[C@H]3O[C@@H](n4cnc5c(N)ncnc54)[C@H](O)[C@@H]3O)[C@@H](O)[C@H]2O)c1; test: SIRT5 wild type desuccinylation reaction, trypsin coupled fluorescence assay with Ac-SucLys-AMC; conditions: other: desuccinylation, succinyl substrate, 25°C, pH 8.0
Method: (§1) The steady state rates of the enzyme catalyzed reactions were derived from the time dependent changes in the fluorescence signal, and the data were analyzed by the ternary complex kinetic mechanism (Eq 4) via Grafit 4 software.
(§2) The steady-state kinetic data were fitted globally by the competitive, mixed, and noncompetitive inhibition models using the DYNAFIT software based on the rapid-equilibrium approximation [43]. All the parameters were allowed to float except for the enzyme concentration. The software utilizes several model-discrimination criteria, including the second order Akaike Information Criterion (AIC) [44, 45], so that the best model out of the three different candidates could be identified.

[2] = substrate: NC(=O)c1ccc[n+]([C@@H]2O[C@H](COP(=O)([O-])OP(=O)(O)OC[C@H]3O[C@@H](n4cnc5c(N)ncnc54)[C@H](O)[C@@H]3O)[C@@H](O)[C@H]2O)c1; test: SIRT5 R105I deacetylation reaction, trypsin coupled assay with Fluor-de-lys; conditions: other: deacetylation, acetyl substrate; pH 8.0; 25.0 °C
Method: as §1, §2

[3] = substrate: NC(=O)c1ccc[n+]([C@@H]2O[C@H](COP(=O)([O-])OP(=O)(O)OC[C@H]3O[C@@H](n4cnc5c(N)ncnc54)[C@H](O)[C@@H]3O)[C@@H](O)[C@H]2O)c1; test: SIRT5 Y102A deacetylation reaction, trypsin coupled assay with Fluor-de-lys; conditions: other: deacetylation, acetyl substrate; pH 8.0; 25.0 °C
Method: as §1, §2

[4] = substrate: NC(=O)c1ccc[n+]([C@@H]2O[C@H](COP(=O)([O-])OP(=O)(O)OC[C@H]3O[C@@H](n4cnc5c(N)ncnc54)[C@H](O)[C@@H]3O)[C@@H](O)[C@H]2O)c1; test: SIRT5 Y102A desuccinylation reaction, trypsin coupled assay with Ac-SucLys-AMC; conditions: other: desuccinylation, succinyl substrate; pH 8.0; 25.0 °C
Method: as §1, §2

[5] = substrate: NC(=O)c1ccc[n+]([C@@H]2O[C@H](COP(=O)([O-])OP(=O)(O)OC[C@H]3O[C@@H](n4cnc5c(N)ncnc54)[C@H](O)[C@@H]3O)[C@@H](O)[C@H]2O)c1; test: SIRT5 Y102A/R105I deacetylation reaction, trypsin coupled assay with Fluor-de-lys; conditions: other: deacetylation, acetyl substrate; pH 8.0; 25.0 °C
Method: The sirtuin catalyzed deacetylase and desuccinylase reactions were measured via the trypsin coupled assay system as described by Madsen et al [39]. […] Since trypsin was used as a coupling enzyme, its concentration was optimized to ensure the emergence of minimal or negligible lag-phase prior to the onset of the steady state phase [42]. […] The steady state rates of the enzyme catalyzed reactions were derived from the time dependent changes in the fluorescence signal, and the data were analyzed by the ternary complex kinetic mechanism (Eq 4) via Grafit 4 software.
as §2
Other reaction conditions were the same as described above. The data were fitted by Eq 5 by Grafit 4.0.

[6] = substrate: NC(=O)c1ccc[n+]([C@@H]2O[C@H](COP(=O)([O-])OP(=O)(O)OC[C@H]3O[C@@H](n4cnc5c(N)ncnc54)[C@H](O)[C@@H]3O)[C@@H](O)[C@H]2O)c1; test: SIRT1 deacetylation reaction, trypsin coupled assay with Fluor-de-lys; conditions: other: deacetylation, acetyl substrate; pH 8.0; 25.0 °C
Method: as §1, §2

B1: SIRT5 wild type (Homo sapiens) (protein)
chain: KHIVIISGAGVSAESGVPTFRGAGGYWRKWQAQDLATPLAFAHNPSRVWEFYHYRREVMGSKEPNAGHRAIAECETRLGKQGRRVVVITQNIDELHRKAGTKNLLEIHGSLFKTRCTSCGVVAENYKSPICPALSGKGAPEPGTQDASIPVEKLPRCEEAGCGGLLRPHVVWFGENLDPAILEEVDRELAHCDLCLVVGTSSVVYPAAMFAPQVAARGVPVAEFNTETTPATNRFRFHFQGPCGTTLPEAL
notes: SIRT1 (193–747) and SIRT5 (51–301) were cloned into the pLIC-His expression vector; His tag (pLIC-His vector); made in house; host or cells: E. coli BL21(DE3) Star
**Q.** How did the Km [1] turn out when B1 was run?
**A.** Its Km is 69 ± 9 µM.

B2: SIRT5 R105I (Homo sapiens; R105I) (protein)
chain: B1 chain with R55I
notes: as for B1
**Q.** B2 was tested. Which Km [2] did it give?
**A.** Its Km is 609 ± 120 µM.

B3: SIRT5 Y102A (Homo sapiens; Y102A) (protein)
chain: B1 chain with Y52A
notes: as for B1
**Q.** For B3, which Km [3] is on record?
**A.** Its Km is 1605 ± 321 µM.

**Q.** What about the Km [4] of the same protein?
**A.** Its Km is 321 ± 49 µM.

B4: SIRT5 Y102A/R105I (Homo sapiens; R105I/Y102A) (protein)
chain: B1 chain with Y52A, R55I
notes: as for B1
**Q.** How did the Km [5] turn out when B4 was run?
**A.** Its Km is 1194 ± 667 µM.

B5: SIRT1 (Homo sapiens) (protein)
chain: MIGTDPRTILKDLLPETIPPPELDDMTLWQIVINILSEPPKRKKRKDINTIEDAVKLLQECKKIIVLTGAGVSVSCGIPDFRSRDGIYARLAVDFPDLPDPQAMFDIEYFRKDPRPFFKFAKEIYPGQFQPSLCHKFIALSDKEGKLLRNYTQNIDTLEQVAGIQRIIQCHGSFATASCLICKYKVDCEAVRGDIFNQVVPRCPRCPADEPLAIMKPEIVFFGENLPEQFHRAMKYDKDEVDLLIVIGSSLKVRPVALIPSSIPHEVPQILINREPLPHLHFDVELLGDCDVIINELCHRLGGEYAKLCCNPVKLSEITEKPPRTQKELAYLSELPPTPLHVSEDSSSPERTSPPDSSVIVTLLDQAAKSNDDLDVSESKGCMEEKPQEVQTSRNVESIAEQMENPDLKNVGSSTGEKNERTSVAGTVRKCWPNRVAKEQISRRLDGNQYLFLPPNRYIFHGAEVYSDSEDDVLSSSSCGSNSDSGTCQSPSLEEPMEDESEIEEFYNGLEDEPDVPERAGGAGFGTDGDDQEAINEAISVKQEVTDMNYPSNKS
notes: as for B1
**Q.** Which results are given for B5?
**A.** Km [6]: 388 ± 73 µM; kcat [6]: 0.000579 ± 9.1e-05 s⁻¹; kcat/Km [6]: 1.63 M⁻¹ s⁻¹
